Experimental findings from article PMC11094075 are described below.

The assay has as its target HA-Ago2K212A, in Ago2-knockout A549 and HCC1806 cells (human) (UniProt Q9UKV8). Description: co-IP; Ago2-knockout A549 and HCC1806 cells expressing HA-Ago2Wt, HA-Ago2K212A or HA-Ago2K212R; IP with anti-HA, blot for endogenous CAV1; ratio pCAV1/pHA; vehicle or TM (10 µM).

“Caveolin-1 (CAV1), endogenous (from UniProt Q03135 1-178) (natural protein)”: the percent decrease of co-precipitated CAV1 per precipitated HA-Ago2 (pCAV1/pHA) against HA-Ago2Wt came out at 46%.
